The source of these data is PMC10066393, “Structural insights into the mechanism of leptin receptor activation” (Nature Communications, 2023).

For assay [1], the target named is Myc-tagged full-length human LepR, wild type (human) (UniProt P48357).
Assay [2] has the same target. This is another data set of the same source.
Assay [3] addresses mouse LepR^D1-D7-zip (Mus musculus | not stated) (UniProt P48356).
Assay [4] concerns the target T1, mouse leptin (Mus musculus, UniProt P41160 22-167).
T1 construct: leptin, Mus musculus, produced in E. coli; Two leptin molecules stand in the 2:2 complex with the zippered LepR dimer; also called M. musculus leptin; source: Escherichia coli produced
Description: cryo-EM structure; SEC-purified leptin–LepR-zip complex cross-linked with 1 mM BS3, 1–2 mg/ml in PBS, 0.01% fluorinated octyl maltoside; single particle cryo-EM, AlphaFold models docked and refined. The note with it: both partners purified.

The target in assay [5] is T1, mouse leptin. Briefly: SEC; mouse leptin incubated with purified LepR-zip overnight at 4 °C at a leptin:LepR ratio of 4:1; Superdex 200 in PBS pH 7.2; co-elution. The note with it: both partners purified. In general terms: Size exclusion chromatography separates by hydrodynamic size, large species first.

Sequence of Myc-tagged full-length human LepR, wild type (human) (P48357 22-1165): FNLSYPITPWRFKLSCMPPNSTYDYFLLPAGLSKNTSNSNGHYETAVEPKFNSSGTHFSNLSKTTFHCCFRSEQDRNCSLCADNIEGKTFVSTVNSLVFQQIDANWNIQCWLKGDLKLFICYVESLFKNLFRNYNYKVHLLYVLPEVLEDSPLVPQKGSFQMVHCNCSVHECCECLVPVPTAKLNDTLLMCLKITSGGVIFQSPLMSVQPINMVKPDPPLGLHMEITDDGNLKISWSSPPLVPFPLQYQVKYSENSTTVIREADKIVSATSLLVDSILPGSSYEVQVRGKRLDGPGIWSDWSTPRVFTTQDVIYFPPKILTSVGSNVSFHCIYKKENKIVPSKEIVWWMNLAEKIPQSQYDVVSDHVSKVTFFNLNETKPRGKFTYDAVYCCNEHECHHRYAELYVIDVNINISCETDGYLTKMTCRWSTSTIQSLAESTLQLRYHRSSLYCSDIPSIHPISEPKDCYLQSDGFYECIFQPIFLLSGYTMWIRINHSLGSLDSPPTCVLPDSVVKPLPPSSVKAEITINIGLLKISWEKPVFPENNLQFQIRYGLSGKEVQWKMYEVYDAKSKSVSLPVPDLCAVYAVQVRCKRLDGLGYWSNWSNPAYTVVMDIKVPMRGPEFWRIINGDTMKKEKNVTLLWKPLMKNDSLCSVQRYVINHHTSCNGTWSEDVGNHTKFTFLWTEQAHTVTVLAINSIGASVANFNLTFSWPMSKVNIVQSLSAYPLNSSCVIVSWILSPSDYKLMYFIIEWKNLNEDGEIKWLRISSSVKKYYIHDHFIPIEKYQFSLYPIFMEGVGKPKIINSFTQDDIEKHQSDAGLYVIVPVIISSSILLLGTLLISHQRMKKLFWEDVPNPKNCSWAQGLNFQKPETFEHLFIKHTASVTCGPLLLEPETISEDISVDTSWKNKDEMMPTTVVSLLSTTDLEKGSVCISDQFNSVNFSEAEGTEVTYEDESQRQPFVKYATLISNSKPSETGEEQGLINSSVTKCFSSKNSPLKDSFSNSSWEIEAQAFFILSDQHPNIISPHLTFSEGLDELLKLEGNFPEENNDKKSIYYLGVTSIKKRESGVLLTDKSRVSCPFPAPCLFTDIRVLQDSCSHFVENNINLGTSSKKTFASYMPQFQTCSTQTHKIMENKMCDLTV
T1 sequence (P41160 22-167): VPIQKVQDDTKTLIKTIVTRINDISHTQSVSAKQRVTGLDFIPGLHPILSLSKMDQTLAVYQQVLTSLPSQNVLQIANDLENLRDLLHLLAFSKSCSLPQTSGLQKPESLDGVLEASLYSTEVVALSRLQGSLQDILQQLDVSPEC

In assay [1], human leptin K33A/Q34A/K35A (ligand) returned a maximal phospho-STAT3 response, dose-response by phospho-flow cytometry, LepR-expressing HEK 293T cells, percent of WT leptin (% of WT leptin) of 75.

Molecule human leptin S117N (ligand) displayed a maximal phospho-STAT3 response, dose-response by phospho-flow cytometry, LepR-expressing HEK 293T cells, percent of WT leptin (% of WT leptin) in assay [1] of 45. Regarding human leptin D23L/S117N (ligand), in assay [2], the phospho-STAT3 left, immunoblots, HEK-293T cells stably expressing hLepR, 10 nM WT leptin plus the variant, relative to WT leptin alone (% of WT leptin alone) worked out at 50; the reduction of phospho-SHP2 and phospho-ERK, immunoblots, HEK-293T cells stably expressing hLepR, 10 nM WT leptin plus the variant, 20 min was 90 % reduction. In assay [3], “leptin S117A used on cells expressing mouse LepR (from UniProt P41160 22-167) (ligand)” displayed an activation of ERK in cells expressing mouse LepR (the whole receptor on cells, not the zip construct) of 5%; an activation of SHP2 in cells expressing mouse LepR (the whole receptor on cells, not the zip construct) of 20%; an activation of STAT3 in cells expressing mouse LepR (the whole receptor on cells, not the zip construct) of 60%.

B1: mouse LepR^D3-D7-zip (receptor)
chain: DVVYFPPKILTSVGSNASFHCIYKNENQIISSKQIVWWRNLAEKIPEIQYSIVSDRVSKVTFSNLKATRPRGKFTYDAVYCCNEQACHHRYAELYVIDVNINISCETDGYLTKMTCRWSPSTIQSLVGSTVQLRYHRRSLYCPDSPSIHPTSEPKNCVLQRDGFYECVFQPIFLLSGYTMWIRINHSLGSLDSPPTCVLPDSVVKPLPPSNVKAEITVNTGLLKVSWEKPVFPENNLQFQIRYGLSGKEIQWKTHEVFDAKSKSASLLVSDLCAVYVVQVRCRRLDGLGYWSNWSSPAYTLVMDVKVPMRGPEFWRKMDGDVTKKERNVTLLWKPLTKNDSLCSVRRYVVKHRTAHNGTWSEDVGNRTNLTFLWTEPAHTVTVLAVNSLGASLVNFNLTFSWPMSKVSAVESLSAYPLSSSCVILSWTLSPDDYSLLYLVIEWKILNEDDGMKWLRIPSNVKKFYIHDNFIPIEKYQFSLYPVFMEGVGKPKIINGFTKDAIDKQQNDAGEELLSKNYHLENEVARLKK
notes: leptin receptor (LepR), Mus musculus, domains D3-D7, residues 330-839; GCN4 leucine zipper, C-terminal, stands in place of the transmembrane domain; Secreted with an N-terminal HA signal peptide from the vector pD649; Dimerised by the leucine zipper; source: Expi293F, transiently transfected, purified from supernatant (Ni-NTA, SEC)
In the case of B1, the binding result with mouse leptin [4] is “binds”.

B2: mouse LepR^D1-D7-zip (receptor)
chain: NLAYPISPWKFKLFCGPPNTTDDSFLSPAGAPNNASALKGASEAIVEAKFNSSGIYVPELSKTVFHCCFGNEQGQNCSALTDNTEGKTLASVVKASVFRQLGVNWDIECWMKGDLTLFICHMEPLPKNPFKNYDSKVHLLYDLPEVIDDSPLPPLKDSFQTVQCNCSLRGCECHVPVPRAKLNYALLMYLEITSAGVSFQSPLMSLQPMLVVKPDPPLGLHMEVTDDGNLKISWDSQTMAPFPLQYQVKYLENSTIVREAAEIVSATSLLVDSVLPGSSYEVQVRSKRLDGSGVWSDWSSPQVFTTQDVVYFPPKILTSVGSNASFHCIYKNENQIISSKQIVWWRNLAEKIPEIQYSIVSDRVSKVTFSNLKATRPRGKFTYDAVYCCNEQACHHRYAELYVIDVNINISCETDGYLTKMTCRWSPSTIQSLVGSTVQLRYHRRSLYCPDSPSIHPTSEPKNCVLQRDGFYECVFQPIFLLSGYTMWIRINHSLGSLDSPPTCVLPDSVVKPLPPSNVKAEITVNTGLLKVSWEKPVFPENNLQFQIRYGLSGKEIQWKTHEVFDAKSKSASLLVSDLCAVYVVQVRCRRLDGLGYWSNWSSPAYTLVMDVKVPMRGPEFWRKMDGDVTKKERNVTLLWKPLTKNDSLCSVRRYVVKHRTAHNGTWSEDVGNRTNLTFLWTEPAHTVTVLAVNSLGASLVNFNLTFSWPMSKVSAVESLSAYPLSSSCVILSWTLSPDDYSLLYLVIEWKILNEDDGMKWLRIPSNVKKFYIHDNFIPIEKYQFSLYPVFMEGVGKPKIINGFTKDAIDKQQNDAGEELLSKNYHLENEVARLKK
notes: leptin receptor (LepR), Mus musculus, complete extracellular domain D1-D7, residues 23-839; GCN4 leucine zipper, C-terminal, stands in place of the transmembrane domain; Secreted with an N-terminal HA signal peptide from the vector pD649; Dimerised by the leucine zipper; source: Expi293F, transiently transfected, purified from supernatant (Ni-NTA, SEC)
Take B2: in the assay with mouse leptin [5], the binding result is reported as “binds”.
